The experiment concerns the target IL-1 receptors on MCF-7 cells. The experiment in a line: cell-based or functional assay.

Consider “Recombinant human IL-1beta (from UniProt P01584 117-269) (ligand)”, for which the inhibition of proliferation of MCF-7 cells (BrdU) worked out at 50 ng. With “recombinant IL-1Ra standard from E. coli (Prospectany) (from UniProt P18510 26-177) (ligand)”, the proliferation of MCF-7 cells (BrdU) in the presence of 50 ng IL-1beta worked out at 20 ng. Same read-out and setting: to “Interleukin 1 receptor antagonist (IL-1Ra) secreted by Pichia pastoris x-33/pGAPZαA/IL-1Ra clone 7, partially purified (from UniProt P18510 26-177) (ligand)” belongs 40 ng.

For the origin of these results see patent US20080166762A1.
